Source: paper PMC12478167

What was measured:
[1] = target: endogenous PirB in mouse cortical neurons (mouse (endogenous in cortical neurons)) (UniProt P97484); assay: immunostaining of cells or tissue
[2] = target: Myc-tagged LilrB2 expressed in HEK293 cells (human) (UniProt Q8N423); assay: immunostaining of cells or tissue
[3] = target: HA-PirB expressed in HEK293 cells (mouse) (UniProt P97484); assay: immunostaining of cells or tissue
[4] = target: sLilrB2, a soluble Fc-tagged form of LilrB2 containing the entire extracellular domain (human) (UniProt Q8N423); assay: SPR

Kd [1]: 380 nM
Kd [2]: 37 nM
Kd [3]: 56 nM
Kd [4]: 3 nM
Substance: C4d, terminal split product of complement component C4 (from UniProt P0C0L4 957-1336) (domain or fragment)
